In US20240209089A1 (SUZHOU SMARTNUCLIDE BIOPHARMACEUTICAL, published 2024):
Numbering of substitutions follows the chain as printed. Where “and” joins values, the source holds several entries; their conditions need not be identical. Identical values can stand only once.

B1: S36-cHis antibody (VHH)
VHH: QVQLVESGGGLVQAGGSLRLSCAASIRTFSDYAMAWFRQGPRKEREFVAAISWNGVTTFYADSVKGRFTISRDDAKNSVYLQMNSLKPEDTAVYYCAGGLNVGWGTHEREYDDWGQGTQVTVSS
notes: HEK293 construct; an E. coli preparation is also described
B2: S5-cHis antibody (VHH)
VHH: QVQLVESGGGLVQAGGSLRVSCAASGGTFSSTAMGWFRQAPGKEREFVAAISWSGGYTYYADSVRGRFTISRDNALNTVSLQMNSLKPEDTAVYYCAADISGLDTVAAGIFTEPNIDYWGKGTLVTVSS
notes: HEK293 construct; an E. coli preparation is also described; Biotinylated for the ForteBio assay; also called SNA006d; SNA006-d
B3: ^125I-SNA006d (VHH)
VHH: B2 VHH
modifications: 125I label by the chloramine T method; labelled residues not stated
B4: S5-cHis-NOTA (VHH)
VHH: B2 VHH
modifications: p-SCN-Bn-NOTA coupled (lysine); sites and number not stated
notes: also called CD8α-cHis-NOTA (S5)
B5: C29-cHis antibody (VHH)
VHH: QVQLVESGGGLVQAGGSLRLSCVASGFTSDDYVIGWFRQAPGKEREGVSCISSSDGTTNYADSVKGRFTISSDNAKNTVYLQMNSLKPEDTAVYYCAADPMRVCPYSGTYYGILGFGTSGQGTQVTVSS
notes: as for B1
B6: C24-cHis antibody (VHH)
VHH: QVQLVESGGGLVQPGGSLRLSCAASGPIFSINTMGWYRQAPGKQRELVATMHSTGSTNYADSVKGRFTISRDNAKKTVYLQMNSLKPDDTAVYYCHVDDTGWGTVDSWGQGIQVTVSS
notes: as for B1
B7: C27-cHis antibody (VHH)
VHH: QLQLVESGGGLVQPGGSLRLSCVVSGSIFAINTMGWYRQAPGKQRELVATMHSGGSTNYADSVKGRFTISRDAAPKTVYLQMNSLKPADTAVYYCHADDSGWGTVDSWGQGIQVTVSS
notes: as for B1
B8: ^125I-SNA006c (VHH)
VHH: QVQLVESGGGLVQAGGSLRLSCAASGVTFDDLAIGWFRQVPGKGREGVSTIGTSDGTAYYADSVKGRFTISSDNAKNTVYLQMNSLKPEDTAVYYCAVDLDYGLGSLLPMGYDYWGQGTQVTVSS
modifications: 125I label by the chloramine T method; labelled residues not stated
B9: C46-cHis antibody (VHH)
VHH: B8 VHH
notes: HEK293 construct; an E. coli preparation is also described; Biotinylated for the ForteBio assay; also called SNA006c; SNA006-c
B10: C46-cHis-NOTA (VHH)
VHH: B8 VHH
modifications: p-SCN-Bn-NOTA coupled (lysine); sites and number not stated
notes: also called CD8α-cHis-NOTA (C46)
B11: C42-cHis antibody (VHH)
VHH: QVQLVESGGGLVQAGGSLRLSCAASGLTFEDYAIGWFRQAPGKEREGISCIRIYDGNTYSAESVKGRFTISSDNAKNQVYLQINTLKPEDTAVYYCAAGSYYSCSVYPDYDMDYWGKGTLVTVSS
notes: HEK293 construct; an E. coli preparation is also described; Biotinylated for the ForteBio assay; also called SNA006b; SNA006-b
B12: ^125I-SNA006a (VHH)
VHH: B11 VHH with V2L
modifications: 125I label by the chloramine T method; labelled residues not stated
B13: C37-cHis antibody (VHH)
VHH: B11 VHH with V2L
notes: HEK293 construct; an E. coli preparation is also described; Biotinylated for the ForteBio assay; also called C37-his; SNA006a
B14: C37-cHis-NOTA (VHH)
VHH: B11 VHH with V2L
modifications: p-SCN-Bn-NOTA coupled (lysine); sites and number not stated
notes: also called CD8α-cHis-NOTA (C37); NOTA-CD8α single domain antibody precursor
B15: C2-cHis antibody (VHH)
VHH: B11 VHH with A14P, L27F, F29L, E30D, D31Y
notes: HEK293 construct; An E. coli (PET22b) preparation is also described

Tests used:
CD8α-Fc fusion protein [1] = target: T1, CD8α-Fc fusion protein (human); test: ELISA on coated CD8α-Fc, relative to C2-cHis control
T1 construct: also called CD8 α-Fc protein; CD8α-Fc tag antigen
Method: (§1) The CD8 α-Fc protein was transiently expressed by HEK293 and purified by protein A affinity chromatography. The plate was coated with the obtained CD8α-Fc protein in a concentration of 0.5 μg/well at 4° C. overnight, and then the gradient dilution series of the obtained anti-CD8α single domain antibody protein was added to react for 1 hour at room temperature. After washing, anti-his horseradish peroxidase labeled antibody was added to react for 1 hour at room temperature. After washing, a chromogenic solution was added, and an absorption value at 450 nm was read. The data processing and plotting analysis were performed by using software SotfMaxPro v5.4. […] Of the 10 selected antibodies (see Table 5 for details), the relative activities of different anti-CD8α single domain antibodies were compared by using C2-cHis as control, so as to reflect the affinity of the antibodies on CD8α. Of the 10 tested antibodies, C37, C42, C46, S5 and S36 have relatively high binding activity.

[2] = target: T2, human CD8α full-length protein (human, UniProt P01732 22-235); test: flow cytometry on MC38-CD8α cells, secondary antibody-PE
T2 construct: whole, on cells; The same entry is used for MC38-CD8α transfectants and for human CD8+ T cells from peripheral blood; the assay field says which cells; also called cell surface CD8α; MC38-CD8α cells
Method: Mouse colon cancer MC38 cell lines stable transfected with human CD8α full-length protein gene were constructed to obtain MC38 cells (MC38-CD8α cells) stably expressing human CD8α proteins on the cell membrane. Prior to use, the cells were cultured to >90% convergence. The anti-CD8α single domain antibody was used to perform flow cytometry on these cells for quantitative analysis of indirect immunofluorescence staining so as to determine the quantity of receptors on surface of each cell.
The cells were collected and suspended to a concentration of 2.5×10⁶ cells/mL. 200 μL of cell aliquot samples were mixed with 20 μL of primary antibody, and the obtained mixture was incubated for 30 min on ice. The cells were centrifuged, washed and re-suspended, then 5 μL of secondary antibody-PE conjugate was added, and then the above mixture was incubated for 30 minutes on ice. The cells were washed twice, re-suspended and underwent flow cytometry on BD FACSCelesta™. For each tube, at least 5×10⁴ events were collected. All the analyses were single colors, and PE was detected in […].

CD8α-Fc fusion protein [3] = target: T1, CD8α-Fc fusion protein; test: ELISA on coated CD8α-Fc, anti-his-HRP, four-parameter fit
Method: as §1

CD8α-cHis fusion protein = target: T3, CD8α-cHis fusion protein (UniProt P01732 22-182); test: BLI (ForteBio Octet), biotinylated antibody on SA sensor, CD8α-chis 6.25-100 nM
T3 construct: not shown: C-terminal His tag
Method: The anti-CD8α single domain antibody-biontin was fixed on an SA biological sensor. Then, CD8α-chis with a concentration of 6.25-100 nM bound to a nano antibody and then dissociated. The binding dynamic variables of four antibodies C37, C42, C46 and S5 were evaluated and determined by using Octet Data Analysis version 9.0, including Kon, Koff and Kd.

CD8α-Fc fusion protein [4] = target: T1, CD8α-Fc fusion protein; test: ELISA on coated CD8α-Fc, antibody after exchange into NaHCO3 buffer, relative to the uncoupled antibody as standard
Method: (§2) By using PD-10 column (GE), the buffer of the CD8α-cHis single domain antibody (including C37, C46 and S5) was changed to a NaHCO3 buffer solution with a certain pH, and p-SCN-Bn-NOTA (Macrocyclics, article No. B-605) was dissolved into DMSO with a concentration of 25 mg/mL, and the p-SCN-Bn-NOTA solution whose molar was twice that of lysine on the single domain antibody was added into the CD8α single domain antibody, the above materials reacted for a certain time period at room temperature, the conjugated product was purified by PD-10 column (GE) and concentrated by ultrafiltration.
(§3) The activity of the above CD8α-NOTA after labeling was determined by ELISA. The specific method is as follows: the CD8α-Fc fusion protein was placed in the coated plate in a concentration of 5 μg/well at 4° C. overnight. After blocking with 3% BSA at 37° C., samples subjected to gradient dilution (the uncoupled CD8α single domain antibody was a standard substance) were added to act for 1 hour at 37° C. Then, anti-his-HRP (purchased from Abcam Company) was added to react for 1 hour at room temperature. Then, a chromogenic solution was added, and the absorption value at 450 nm was read.

[5] = target: T2, human CD8α full-length protein; test: radioligand saturation binding on MC38-CD8 cells, 4 °C, one-site fit
Method: (§4) Receptor binding reaction: a radioligand saturation method was used, total binding and non-specific binding groups were included.
(§5) The cells were incubated for 2 h at 4° C. After that, the supernatant was extracted, the cells were washed 6 times with PBS pre-cooled at 4° C., and 200 μL of PBS was added into each well every time. Finally, the filter membrane was collected, the radioactivity count of each tube of sample and standard sample was measured on the γ counter. Finally, saturation curve fitting was performed by using Prism 7.0 (GraphPad Software, Inc.) software according to the single-point binding model, and then KD and Bmax were calculated.

CD8α-Fc fusion protein [6] = target: T1, CD8α-Fc fusion protein; test: ELISA on coated CD8α-Fc, NOTA conjugate, relative to the uncoupled antibody as standard
Method: as §2, §3

[7] = target: T2, human CD8α full-length protein; test: saturation radioligand binding on MC38-CD8 cells, 2 h at 4 °C, one-site fit; panel assigned through the KD of Table 8 (3.8 nM, 125I-SNA006c)
Method: as §4, §5

[8] = target: T2, human CD8α full-length protein; test: competition binding on MC38-CD8 cells, displacement of ^125I-SNA006a, 4 °C, 2 h
Method: (§6) The 96-well cell suction filter plate was saturated with a binding buffer and dried in air before use.
(§7) After reaction for 2 hours at 4° C., the reaction solution in the suction filter plate was drained using auxiliary equipment of a vacuum pump and the suction filter plate, 200 μL of PBS buffer (0.01 M, pH=7.4) was added into each well and drained, and the cells were repeatedly washed for 6 times. After the filter membrane at the bottom of the suction filter plate was dried, the filter membrane at the bottom was collected, and a γ counter was used for measurement. Calculation and plotting were performed by using Prism 7.0 (GraphPad Software, Inc.), and the half inhibition concentration IC50 was calculated by nonlinear regression analysis. Four parallel samples were set at each experimental point, and the experiment was repeated twice. The result given in this experiment is an average value plus a standard deviation.

[9] = target: T2, human CD8α full-length protein; test: competition radioligand binding on MC38-CD8 cells, 2 h at 4 °C; unlabeled SNA006a varied against the tracer 125I-SNA006a
Method: as §6, §7

CD8α-Fc fusion protein [10] = target: T1, CD8α-Fc fusion protein; test: ELISA on coated CD8α-Fc; C2-cHis is the control (=100)
Method: as §1

T2 sequence (P01732 22-235): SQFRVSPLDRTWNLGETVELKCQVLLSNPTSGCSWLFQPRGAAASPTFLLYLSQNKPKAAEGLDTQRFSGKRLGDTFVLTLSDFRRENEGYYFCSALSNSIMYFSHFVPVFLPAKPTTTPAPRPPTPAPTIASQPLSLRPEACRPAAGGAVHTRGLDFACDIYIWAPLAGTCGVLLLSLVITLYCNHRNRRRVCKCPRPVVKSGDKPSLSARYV
T3 sequence (P01732 22-182): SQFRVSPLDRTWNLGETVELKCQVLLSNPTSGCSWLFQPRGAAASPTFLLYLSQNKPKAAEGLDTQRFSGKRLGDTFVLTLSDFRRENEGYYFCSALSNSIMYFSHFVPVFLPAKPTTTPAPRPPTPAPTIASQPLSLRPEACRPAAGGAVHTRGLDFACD
T1 sequence (chain, as listed by the source): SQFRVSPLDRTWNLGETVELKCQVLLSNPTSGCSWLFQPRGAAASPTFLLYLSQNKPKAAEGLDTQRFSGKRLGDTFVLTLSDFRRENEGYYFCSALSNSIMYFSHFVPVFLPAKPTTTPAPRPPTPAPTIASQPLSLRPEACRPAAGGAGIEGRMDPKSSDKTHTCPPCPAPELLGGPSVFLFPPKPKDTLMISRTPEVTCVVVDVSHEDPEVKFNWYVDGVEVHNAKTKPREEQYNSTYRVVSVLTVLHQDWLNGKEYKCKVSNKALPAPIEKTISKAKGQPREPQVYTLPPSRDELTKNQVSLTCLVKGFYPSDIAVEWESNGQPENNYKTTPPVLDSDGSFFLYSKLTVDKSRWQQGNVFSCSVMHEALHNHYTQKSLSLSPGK

Binder | Relative activity (%) (CD8α-Fc fusion protein [1]) | Positive rate (%) [2] | EC50 (CD8α-Fc fusion protein [3]) | further results
B1 | 289% | 99.7% | 1.42 ng/mL | –
B2 | 180% | 99.7% | 2.28 ng/mL | Kd (CD8α-cHis fusion protein): 2.87 nM; koff (CD8α-cHis fusion protein): 0.000445 s⁻¹; kon (CD8α-cHis fusion protein): 155000 M⁻¹ s⁻¹; Relative activity of CD8α-cHis-NaHCO3 (%) (CD8α-Fc fusion protein [4]): 98%
B3 | – | – | – | Kd [5]: 1.5 nM
B4 | – | – | – | Relative activity of CD8α-cHis-NOTA (%) (CD8α-Fc fusion protein [6]): 105%
B5 | 61.9% | 98.4% | 3.55 ng/mL | –
B6 | 47.9% | 99.4% | 4.59 ng/mL | –
B7 | 96.4% | 93.6% | 2.28 ng/mL | –
B8 | – | – | – | Kd [5]: 3.8 nM; Kd [7]: 3.84 nM
B9 | 175% | 99.5% | 1.82 ng/mL | Kd (CD8α-cHis fusion protein): 1.08 nM; koff (CD8α-cHis fusion protein): 0.000271 s⁻¹; kon (CD8α-cHis fusion protein): 251000 M⁻¹ s⁻¹; Relative activity of CD8α-cHis-NaHCO3 (%) (CD8α-Fc fusion protein [4]): 76%
B10 | – | – | – | Relative activity of CD8α-cHis-NOTA (%) (CD8α-Fc fusion protein [6]): 20%
B11 | 269% | 99.9% | 1.18 ng/mL | Kd (CD8α-cHis fusion protein): 0.727 nM; koff (CD8α-cHis fusion protein): 0.00042 s⁻¹; kon (CD8α-cHis fusion protein): 578000 M⁻¹ s⁻¹
B12 | – | – | – | Kd [5]: 0.46 nM
B13 | 322% | 99.8% | 0.989 ng/mL | IC50 [8]: ~3 nM; Kd (CD8α-cHis fusion protein): 0.644 nM; koff (CD8α-cHis fusion protein): 0.000311 s⁻¹; kon (CD8α-cHis fusion protein): 483000 M⁻¹ s⁻¹; Relative activity of CD8α-cHis-NaHCO3 (%) (CD8α-Fc fusion protein [4]): 76%; IC50 [9]: 3.02 nM; IC50 (read off the curve) [9]: ~3 nM
B14 | – | – | – | Relative activity of CD8α-cHis-NOTA (%) (CD8α-Fc fusion protein [6]): 77%
B15 | – | 99.9% | 2.2 ng/mL and 3.18 ng/mL and 4.11 ng/mL | Relative activity (%) (CD8α-Fc fusion protein [10]): 100%
